From PMC2944808
Read-outs that look alike come from different tables or passages of the source.

Assays:
[1] = molecular target: VWC2 domain of Chordin, mouse (mouse); experiment: SPR; BIAcore 2000; VWC2 domain of Chordin immobilised, CV2 proteins perfused; apparent KD from koff/kon; 6 to 9 analyte concentrations, at least three independent experiments
BMP2 (Homo sapiens) [2] = molecular target: BMP2 (Homo sapiens) (UniProt P12643); experiment: SPR; BIAcore 2000; BMP2 immobilised, CV2 proteins perfused; apparent KD from koff/kon; 6 to 9 analyte concentrations, at least three independent experiments
Sequence of BMP2 (Homo sapiens) (P12643 283-396): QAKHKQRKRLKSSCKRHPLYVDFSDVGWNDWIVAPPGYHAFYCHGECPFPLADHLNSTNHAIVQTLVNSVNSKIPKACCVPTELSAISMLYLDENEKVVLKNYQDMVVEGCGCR

[3] = molecular target: Chordin, full-length, mouse (mouse) (UniProt Q9Z0E2); experiment: SPR; BIAcore 2000; Chordin immobilised, CV2 proteins perfused; apparent KD from koff/kon; 6 to 9 analyte concentrations, at least three independent experiments
Sequence of Chordin, full-length, mouse (mouse) (Q9Z0E2 27-948): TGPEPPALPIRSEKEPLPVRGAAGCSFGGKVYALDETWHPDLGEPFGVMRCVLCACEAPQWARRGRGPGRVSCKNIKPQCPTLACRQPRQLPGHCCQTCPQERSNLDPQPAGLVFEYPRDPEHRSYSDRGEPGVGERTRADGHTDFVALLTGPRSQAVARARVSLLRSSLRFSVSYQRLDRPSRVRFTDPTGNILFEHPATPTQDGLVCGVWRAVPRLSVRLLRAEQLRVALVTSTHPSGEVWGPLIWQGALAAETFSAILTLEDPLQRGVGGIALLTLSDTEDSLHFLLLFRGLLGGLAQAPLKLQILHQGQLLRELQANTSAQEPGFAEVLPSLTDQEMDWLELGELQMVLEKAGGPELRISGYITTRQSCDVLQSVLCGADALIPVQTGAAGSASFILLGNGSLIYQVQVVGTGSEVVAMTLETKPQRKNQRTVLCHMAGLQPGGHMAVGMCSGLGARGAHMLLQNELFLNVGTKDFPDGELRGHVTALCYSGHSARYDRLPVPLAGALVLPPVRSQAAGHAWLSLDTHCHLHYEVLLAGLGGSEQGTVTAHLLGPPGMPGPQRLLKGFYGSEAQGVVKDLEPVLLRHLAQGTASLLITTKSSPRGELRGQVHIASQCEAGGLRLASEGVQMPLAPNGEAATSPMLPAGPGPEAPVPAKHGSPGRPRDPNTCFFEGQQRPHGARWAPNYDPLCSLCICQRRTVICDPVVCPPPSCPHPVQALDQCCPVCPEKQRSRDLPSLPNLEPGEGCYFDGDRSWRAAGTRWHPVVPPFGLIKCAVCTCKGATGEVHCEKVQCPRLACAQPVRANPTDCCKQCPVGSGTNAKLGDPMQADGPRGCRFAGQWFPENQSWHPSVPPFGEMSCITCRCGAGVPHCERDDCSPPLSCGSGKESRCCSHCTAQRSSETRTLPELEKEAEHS

BMP2 (Homo sapiens) [4] = molecular target: BMP2 (Homo sapiens) (UniProt P12643); details: cited from earlier work
[5] = molecular target: Crossveinless-2 (CV2), full-length, zebrafish (zebrafish); experiment: SPR; BIAcore 2000; CV2 immobilised on the chip (legend of Figure 1E: CV2-N), Chordin (50-600 nM) or Chordin VWC2 (10-120 nM) in solution; apparent KD

Sequence of Chordin (Q9H2X0 27-955): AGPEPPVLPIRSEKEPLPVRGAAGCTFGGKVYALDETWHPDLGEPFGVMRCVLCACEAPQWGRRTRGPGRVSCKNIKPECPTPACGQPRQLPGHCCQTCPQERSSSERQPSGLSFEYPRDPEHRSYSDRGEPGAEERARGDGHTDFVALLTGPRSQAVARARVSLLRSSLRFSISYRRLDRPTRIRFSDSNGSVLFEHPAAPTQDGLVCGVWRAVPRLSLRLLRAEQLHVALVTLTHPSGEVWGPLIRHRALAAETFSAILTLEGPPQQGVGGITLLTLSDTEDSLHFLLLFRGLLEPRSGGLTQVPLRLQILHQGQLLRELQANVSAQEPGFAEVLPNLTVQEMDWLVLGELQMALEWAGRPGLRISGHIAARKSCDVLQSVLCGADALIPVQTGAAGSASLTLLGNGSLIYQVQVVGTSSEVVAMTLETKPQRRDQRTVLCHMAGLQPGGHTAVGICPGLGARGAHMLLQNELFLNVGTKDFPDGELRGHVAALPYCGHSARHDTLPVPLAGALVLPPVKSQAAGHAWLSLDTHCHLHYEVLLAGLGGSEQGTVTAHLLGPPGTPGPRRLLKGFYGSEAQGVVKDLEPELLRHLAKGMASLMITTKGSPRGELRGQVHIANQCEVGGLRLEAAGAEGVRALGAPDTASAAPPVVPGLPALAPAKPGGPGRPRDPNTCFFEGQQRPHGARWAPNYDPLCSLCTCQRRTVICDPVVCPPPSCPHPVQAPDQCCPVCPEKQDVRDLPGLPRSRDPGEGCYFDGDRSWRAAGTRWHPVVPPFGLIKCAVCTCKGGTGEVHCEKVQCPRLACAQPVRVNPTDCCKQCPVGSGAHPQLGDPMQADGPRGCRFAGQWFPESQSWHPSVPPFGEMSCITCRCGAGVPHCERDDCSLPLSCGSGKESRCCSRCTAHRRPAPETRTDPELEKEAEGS

Kd [1] [nM] | Kd (BMP2 (Homo sapiens) [2]) [nM] | Kd [3] [nM] | Kd [5] [nM] | Substance | Kd (BMP2 (Homo sapiens) [4]) [nM]
170 |  | 188 |  | CV2 ΔClip-SD1 (domain or fragment) | 
 | 22 |  |  | CV2 ΔSD2 (domain or fragment) | 
 | 24 |  |  | CV2-VWC1-3 (domain or fragment) | 
 |  |  | 5 | VWC2 domain of Chordin, mouse (domain or fragment) | 

Continued, substance first:

Substance | Kd [1] [nM] | Kd (BMP2 (Homo sapiens) [2]) [nM] | Kd [3] [nM] | Kd [5] [nM] | Kd (BMP2 (Homo sapiens) [4]) [nM]
CV2 T5P/I21R (natural protein) | 172 | 18000 | 183 |  | 
CV2-VWC1-5 (CV2-N) (domain or fragment) | 140 | 25 | 170 |  | 
Chordin (from UniProt Q9H2X0) |  |  |  |  | 20
Crossveinless-2 (CV2), full-length, zebrafish (natural protein) | 150 | 22 | 175 |  | 
